{"source": "patent US20210340238A1", "about": "“TGFß1 INHIBITORS AND USE THEREOF” (Scholar Rock, Inc., priority 2018, published 2021)", "key": {"[1]": {"target": "Matrix-associated proTGFβ1", "assay": "Octet binding, ECM average of hLTBP1 and hLTBP3 complexes", "set-up": "species or system human", "conditions": "average KD of (B) and (C), read-out: (D) ECM AVRG", "text": "Column (A) of the table provides monoclonal antibodies with discrete amino acid sequences. […] Columns (B), (C), (E) and (F) provide affinities of each of the listed antibodies, measured in KD, towards the antigen complex as indicated, respectively. […] Average KD values calculated from (B) and (C) are shown in the corresponding column (D), which collectively represents affinities of the antibodies to ECM- or matrix-associated proTGFβ1 complexes. Similarly, Average KD values calculated from (E) and (F) are shown in the corresponding column (G), which collectively represents affinities of the antibodies to cell-surface or cell-associated proTGF complexes. Finally, relative ratios between the average KD values from columns (D) and (G) are expressed as fold bias” in column (H). Thus, the greater the numerical of column (H) is, the greater bias exists for the particular antibody, when comparing binding preferences of the antibody for matrix-associated complexes to cell-surface complexes. This is one way of quantitatively representing and comparing inherent bias of antibodies to their target complexes. Such analyses may be useful in guiding the selection process for a candidate antibody for particular therapeutic use."}, "human proTGFβ1 C4S/R249A": {"target": "T1, human proTGFβ1 C4S/R249A (Homo sapiens, UniProt P01137, C33S/R278A)", "T1 construct": "made in house; host or cells: expi293 (kifunensine-treated), co-expressed with Ab2-Fab", "T1 sequence (P01137 30-390 C33S/R278A)": "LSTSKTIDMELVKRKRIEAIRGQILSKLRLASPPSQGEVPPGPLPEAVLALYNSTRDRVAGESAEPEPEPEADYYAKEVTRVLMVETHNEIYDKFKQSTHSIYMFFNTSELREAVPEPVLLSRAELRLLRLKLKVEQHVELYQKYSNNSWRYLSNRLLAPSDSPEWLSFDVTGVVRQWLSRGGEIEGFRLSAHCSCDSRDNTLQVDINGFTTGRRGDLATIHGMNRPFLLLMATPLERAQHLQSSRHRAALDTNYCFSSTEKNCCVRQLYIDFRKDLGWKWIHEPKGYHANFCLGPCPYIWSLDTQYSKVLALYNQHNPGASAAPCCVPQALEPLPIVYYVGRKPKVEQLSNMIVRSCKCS", "assay": "X-ray crystallography of proTGFβ1:Ab2-Fab:AbX-Fab ternary complex", "format": "binding", "conditions": "numbering after removal of signal sequence", "text": "In this work, an uncleavable human proTGFβ1 C4S/R249A variant was used that spans residues 30-390 based on the full-length sequence of human proTGFβ1 (Uniprot ID P01137). The numbering system that will be used for the rest of this document will designate position 1 as the first amino acid residue after the removal of the signal sequence for proTGFβ isoforms. The C4S mutation renders proTGFβ1 not capable of covalent crosslinking to any known presenting molecules, e.g. LTBPs and GARP, while the R249A renders proTGFβ1 resistant to proprotein convertase/furin protease cleavage, thus maintaining proTGFβ1 in its uncleaved, proprotein form. ProTGFβ1 C4S/R249A was co-expressed with C-terminally 6×-His tagged Ab2-Fab in kifunensine-treated expi293 mammalian expression system to reduce N-linked glycosylation events. The proTGFβ1 C4S/R249A:Ab2-Fab was affinity purified, treated with endoglycosidase H and purified by gel filtration. The proTGFβ1 C4S/R249A:Ab2-Fab complex was then incubated with AbX-Fab to generate the ternary complex. The AbX Fab in this context was used as an auxiliary protein, which acts as a crystallization chaperone to increase the probability of obtaining protein crystals.\nCrystallization experiments were performed at room temperature in a sitting drop format. […]"}}}
{"molecule": "Ab2: isoform-selective inhibitor of TGFβ1 activation; VH SEQ ID NO: 13, VL SEQ ID NO: 15; human IgG4 (antibody, V domains shown, human IgG4 constant regions) VH: EVQLLESGGGLVQPGGSLRLSCAASGFTFADYAMTWVRQAPGKGLEWVSAISGSGAATYFADSVKGRFTISRDNSKNTLYLQMNSLRAEDTAVYYCARVSSGHWDFDYWGQGTLVTVSS VL: DIQLTQSPSSLSASVGDRVTITCRASQSISSYLNWYQQKPGKAPKLLIYAASNLQSGVPSRFSGSGSGTDFTLTISSLQPEDFATYYCQQTYTVPLTFGGGTKVEIK", "values": [{"measurement": "Kd", "setting": "[1]", "result": 0.157, "unit": "nM"}, {"measurement": "Epitope on proTGFβ1 from crystal structure", "setting": "human proTGFβ1 C4S/R249A", "result": "linear epitope formed by residues 35-43"}]}
